# Assay results reported in the supplement of paper PMC5998384.
# Key:
# [1] = test system: HeLa Kyoto; experiment: thermal stability score vs G1/S (z-score of summed log2 fold changes over temperatures); higher = more thermally stable than in G1/S
# [2] = test system: HeLa Kyoto; experiment: melting temperature (median over replicates), in situ; higher = more thermally stable
# [3] = test system: HeLa Kyoto; experiment: solubility change mitosis vs G1/S (difference of NP-40 vs SDS log2 ratios) (log2 ratio difference); higher = more soluble in mitosis
# [4] = test system: HeLa Kyoto; experiment: solubility in G1/S (NP-40 vs SDS abundance) (log2 ratio); higher = more soluble; settings: cell cycle stage: G1/S
# [5] = cell cycle stage: early G1 (4.5 h after nocodazole release)
# 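For melting temperature (median over replicates), in situ in this document: HeLa Kyoto cells synchronized by double thymidine or nocodazole block, proteins quantified by TMT10plex mass spectrometry, three independent biological replicates.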
# 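For solubility change mitosis vs G1/S (difference of NP-40 vs SDS log2 ratios) in this document: synchronized HeLa Kyoto cells (double thymidine block for G1/S, nocodazole release for mitosis), protein amounts in NP-40 versus SDS lysates quantified by mass spectrometry, three biological replicates.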
# 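For solubility in G1/S (NP-40 vs SDS abundance) in this document: HeLa Kyoto cells arrested at G1/S by double thymidine block, proteins quantified by TMT10plex mass spectrometry in mild NP-40 versus SDS extracts, three biological replicates.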
# 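For thermal stability score vs G1/S (z-score of summed log2 fold changes over temperatures) in this document: synchronized HeLa Kyoto cells, proteins quantified by TMT10plex mass spectrometry, three biological replicates, mitosis taken 0.5 h after nocodazole release, G1/S directly after double thymidine block.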
Sequence,"thermal stability score [1, 5]",thermal stability score ([1]; cell cycle stage: mitosis),melting temperature ([2]; cell cycle stage: G1/S) [°C],melting temperature ([2]; cell cycle stage: mitosis) [°C],solubility change mitosis (log2) [3],solubility in G1/S (log2) [4]
MEKRETFVQAVSKELVGEFLQFVQLDKEASDPFSLNELLDELSRKQKEELWQRLKNLLTDVLLESPVDGWQVVEAQGEDNMETEHGSKMRKSIEIIYAITSVILASVSVINESENYEALLECVIILNGILYALPESERKLQSSIQDLCVTWWEKGLPAKEDTGKTAFVMLLRRSLETKTGADVCRLWRIHQALYCFDYDLEESGEIKDMLLECFININYIKKEEGRRFLSCLFNWNINFIKMIHGTIKNQLQGLQKSLMVYIAEIYFRAWKKASGKILEAIENDCIQDFMFHGIHLPRRSPVHSKVREVLSYFHHQKKVRQGVEEMLYRLYKPILWRGLKARNSEVRSNAALLFVEAFPIRDPNLHAIEMDSEIQKQFEELYSLLEDPYPMVRSTGILGVCKITSKYWEMMPPTILIDLLKKVTGELAFDTSSADVRCSVFKCLPMILDNKLSHPLLEQLLPALRYSLHDNSEKVRVAFVDMLLKIKAVRAAKFWKICPMEHILVRLETDSRPVSRRLVSLIFNSFLPVNQPEEVWCERCVTLVQMNHAAARRFYQYAHEHTACTNIAKLIHVIRHCLNACIQRAVREPPEDEEEEDGREKENVTVLDKTLSVNDVACMAGLLEIIVILWKSIDRSMENNKEAKLYTINKFASVLPEYLKVFKDDRCKIPLFMLMSFMPASAVPPFSCGVISTLRSREEGAVDKSYCTLLDCLCSWGQVGHILELVDNWLPTEHAQAKSNTASKGRVQIHDTRPVKPELALVYIEYLLTHPKNRECLLSAPRKKLNHLLKALETSKADLESLLQTPGGKPRGFSEAAAPRAFGLHCRLSIHLQHKFCSEGKVYLSMLEDTGFWLESKILSFIQDQEEDYLKLHRVIYQQIIQTYLTVCKDVVMVGLGDHQFQMQLLQRSLGIMQTVKGFFYVSLLLDILKEITGSSLIQKTDSDEEVAMLLDTVQKVFQKMLECIARSFRKQPEEGLRLLYSVQRPLHEFITAVQSRHTDTPVHRGVLSTLIAGPVVEISHQLRKVSDVEELTPPEHLSDLPPFSRCLIGIIIKSSNVVRSFLDELKACVASNDIEGIVCLTAAVHIILVINAGKHKSSKVREVAATVHRKLKTFMEITLEEDSIERFLYESSSRTLGELLNS [NCAPG2],0.33,0.687,49.1,48.1,-0.0274,-0.313
MEKSSSCESLGSQPAAARPPSVDSLSSASTSHSENSVHTKSASVVSSDSISTSADNFSPDLRVLRESNKLAEMEEPPLLPGENIKDMAKDVTYICPFTGAVRGTLTVTNYRLYFKSMERDPPFVLDASLGVINRVEKIGGASSRGENSYGLETVCKDIRNLRFAHKPEGRTRRSIFENLMKYAFPVSNNLPLFAFEYKEVFPENGWKLYDPLLEYRRQGIPNESWRITKINERYELCDTYPALLVVPANIPDEELKRVASFRSRGRIPVLSWIHPESQATITRCSQPMVGVSGKRSKEDEKYLQAIMDSNAQSHKIFIFDARPSVNAVANKAKGGGYESEDAYQNAELVFLDIHNIHVMRESLRKLKEIVYPNIEETHWLSNLESTHWLEHIKLILAGALRIADKVESGKTSVVVHCSDGWDRTAQLTSLAMLMLDGYYRTIRGFEVLVEKEWLSFGHRFQLRVGHGDKNHADADRSPVFLQFIDCVWQMTRQFPTAFEFNEYFLITILDHLYSCLFGTFLCNSEQQRGKENLPKRTVSLWSYINSQLEDFTNPLYGSYSNHVLYPVASMRHLELWVGYYIRWNPRMKPQEPIHNRYKELLAKRAELQKKVEELQREISNRSTSSSERASSPAQCVTPVQTVV [MTMR2],-1.45,-1.51,53.4,53,-0.12,0.0322
MELCGLGLPRPPMLLALLLATLLAAMLALLTQVALVVQVAEAARAPSVSAKPGPALWPLPLLVKMTPNLLHLAPENFYISHSPNSTAGPSCTLLEEAFRRYHGYIFGFYKWHHEPAEFQAKTQVQQLLVSITLQSECDAFPNISSDESYTLLVKEPVAVLKANRVWGALRGLETFSQLVYQDSYGTFTINESTIIDSPRFSHRGILIDTSRHYLPVKIILKTLDAMAFNKFNVLHWHIVDDQSFPYQSITFPELSNKGSYSLSHVYTPNDVRMVIEYARLRGIRVLPEFDTPGHTLSWGKGQKDLLTPCYSRQNKLDSFGPINPTLNTTYSFLTTFFKEISEVFPDQFIHLGGDEVEFKCWESNPKIQDFMRQKGFGTDFKKLESFYIQKVLDIIATINKGSIVWQEVFDDKAKLAPGTIVEVWKDSAYPEELSRVTASGFPVILSAPWYLDLISYGQDWRKYYKVEPLDFGGTQKQKQLFIGGEACLWGEYVDATNLTPRLWPRASAVGERLWSSKDVRDMDDAYDRLTRHRCRMVERGIAAQPLYAGYCNHENM [HEXB],-1.76,-0.878,56.7,58,0.0247,0.38
MELDSALEAPSQEDSNLSEELSHSAFGQAFSKILHCLARPEARRGNVKDAVLKDLGDLIEATEFDRLFEGTGARLRGMPETLGQVAKALEKYAAPSKEEEGGGDGHSEAAEKAAQVGLLFLKLLGKVETAKNSLVGPAWQTGLHHLAGPVYIFAITHSLEQPWTTPRSREVAREVLTSLLQVTECGSVAGFLHGENEDEKGRLSVILGLLKPDLYKESWKNNPAIKHVFSWTLQQVTRPWLSQHLERVLPASLVISDDYQTENKILGVHCLHHIVLNVPAADLLQYNRAQVLYHAISNHLYTPEHHLIQAVLLCLLDLFPILEKTLHWKGDGARPTTHCDEVLRLILTHMEPEHRLLLRRTYARNLPAFVNRLGILTVRHLKRLERVIIGYLEVYDGPEEEARLKILETLKLLMQHTWPRVSCRLVVLLKALLKLICDVARDPNLTPESVKSALLQEATDCLILLDRCSQGRVKGLLAKIPQSCEDRKVVNYIRKVQQVSEGAPYNGT [TTI2],0.152,0.904,50.5,49.7,-0.201,0.208
MELFLAGRRVLVTGAGKGIGRGTVQALHATGARVVAVSRTQADLDSLVRECPGIEPVCVDLGDWEATERALGSVGPVDLLVNNAAVALLQPFLEVTKEAFDRSFEVNLRAVIQVSQIVARGLIARGVPGAIVNVSSQCSQRAVTNHSVYCSTKGALDMLTKVMALELGPHKIRVNAVNPTVVMTSMGQATWSDPHKAKTMLNRIPLGKFAEVEHVVNAILFLLSDRSGMTTGSTLPVEGGFWAC [DCXR],-1.92,-1.77,57.7,55.7,-0.0268,0.282
MELSAEYLREKLQRDLEAEHVEVEDTTLNRCSCSFRVLVVSAKFEGKPLLQRHRLVNACLAEELPHIHAFEQKTLTPDQWARERQK [BOLA2],0.374,0.288,50.9,51.9,0.186,-0.0477
